Measurements as given in US7566535B2, “Enhanced oligonucleotide-mediated nucleic acid sequence alteration” (University of Delaware, priority 2002, dated 2009).
In the oligonucleotide strings, read from the 5' end, every base follows the letter of its sugar. An asterisk marks phosphorothioate; unmarked linkages are phosphodiester. Other units and linkages are bracketed, terminal groups are in braces. A string of capitals states the bases alone. d = 2'-deoxy (DNA)

What was measured:
[1] = system: pAURHYG(x)eGFP; test: Hygromycin gene correction in yeast LSY678 with or without trichostatin A
[2] = system: pAURHYG(x)eGFP; test: Strand bias of hygromycin gene correction in rad1 and rad10 yeast mutants
[3] = system: human β-globin gene in YAC; test: Dual targeting: second-site editing of β-globin gene in YAC, SNaPshot and sequencing; conditions: HU, TSA, RAD51 overexpression

For `CC(/C=C/C(=O)NO)=C\[C@@H](C)C(=O)c1ccc(N(C)C)cc1` [trichostatin A, reference compound], the “increase of efficiency of gene alteration” value ([1]; 50 μg/mL during the recovery period) was at least 3 fold and the “increase of efficiency of gene alteration” value ([1]; 50 μg/mL for four hours prior to electroporation) was “up to several-fold”.

B1: Kan70T: non-specific, control oligonucleotide not complementary to the target sequence, SEQ ID NO: 11 (nucleic acid)
DNA: CATCAGAGCAGCCAATTGTCTGTTGTGCCCAGTCGTAGCCGAATAGCCTCTCCACCCAAGCGGCCGGAG
modifications: listed as DNA, chemistry not given here
In the case of B1, the “Colonies on Hygromycin” value ([2]; rad1 mutant) is reported as 0 and the “Colonies on Hygromycin” value ([2]; rad10 mutant) is reported as 0.

B2: βThal2: 71mer with three phosphorothioate linkages at 5′ and 3′ ends directing T to C in β-globin, SEQ ID NO: 28 (nucleic acid)
DNA: dT*dA*dA*dCdGdGdCdAdGdAdCdTdTdCdTdCdCdAdCdAdGdGdAdGdTdCdAdGdGdTdGdCdAdCdCdGdTdGdGdTdGdTdCdTdGdTdTdTdGdAdGdGdTdTdGdCdTdAdGdTdGdAdAdCdAdCdAdG*dT*dT*dG
B2 was tested, and the “cells with corrected hygromycin also containing the edited β-globin gene” value [3] was “approximately 10%”.
